Results taken from patent publication US7189515.

Target: T1, mature human interleukin-8 with C-terminal hexahistidine (human, UniProt P10145 21-99, biotin-XX (NHS ester labelling) in the affinity determination of Example 21; unlabelled in Examples 27 and 34)
T1 construct: mature; also called IL-8; IL8
T1 sequence: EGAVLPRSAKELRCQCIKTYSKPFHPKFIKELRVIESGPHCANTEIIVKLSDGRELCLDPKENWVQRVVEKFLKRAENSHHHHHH
Experiment: BIACORE two-site assay, blank-subtracted; IL-8 held by primary antibody (competitor) M1-10
Experimental: A BIACORE® 3000 instrument (Biacore AB, Uppsala, Sweden) was used to measure the epitope binding.
Each antibody was diluted to 100 µg/mL and the IL-8 was diluted to 1 µM in 10 mM N-2-hydroxyethylpiperazine-N'-2-ethane-sulfonic acid, 150 mM sodium chloride, 3 mM EDTA, 0.005% polysorbate 20, pH 7.4 (HBS-EP, Biacore AB, Uppsala, Sweden). […] IL-8 (10 µL) was then bound to the primary antibody in all 4 channels. One secondary antibody (10 µL) was passed through one channel each. The resonance units of the secondary antibodies were measured 20 seconds after the injection was over. Blank resonance unit values for each primary/secondary antibody combination were obtained by injecting HBS-EP instead of IL-8 and these were subtracted from the resonance units measured for the corresponding primary/secondary antibody pairing that was contacted with IL-8. Blocking antibody injections were not done.

B1: M1-21 (Fab)
heavy: QVQLVQSGGGVVQPGKSLRLSCAASGFTFSYYGMHWVRQVPGKGLEWVAAVWYDGSTTYSPDSVKGRFTISRDDSKNTLYLQMSSLRAEDTAVYYCARDRVGLFDYWGQGTLVTVSSASTKGPSVFPLAPSSKSTSGGTAALGCLVKDYFPEPVTVSWNSGALTSGVHTFPAVLQSSGLYSLSSVVTVPSSSLGTQTYICNVNHKPSNTKVDKKAEPKSHHHHHH
light: not shown
notes: also called monoclonal antibody M1-21; M1_21H
Resonance Units: 706 RU

B2: M1-10 (Fab)
heavy: QVQLVQSGGGLVHPGGSLRLSCEGSGFIFRNHPIHWVRQAPGKGLEWVSVSGIGGDTYYADSVKGRFSISRDNAKNSLYLQMNSLRAEDMAVYYCAREYYYGSGSYRVDYYYYGMDVWGQGTTVTVSSASTKGPSVFPLAPSSKSTSGGTAALGCLVKDYFPEPVTVSWNSGALTSGVHTFPAVLQSSGLYSLSSVVTVPSSSLGTQTYICNVNHKPSNTKVDKKAEPKSHHHHHH
light: not shown
notes: also called monoclonal human antibody M1-10; M1_10H
Resonance Units: -17 RU
